Blank lines part the entries; values can stand above or below the binder they belong to.
Assays:
[1] = biological target: M44-modified D NTAA target peptides; assay: encoding assay; P2 D;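 further: fraction of recording tags encoded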
[2] = biological target: M44-modified H NTAA target peptides; assay: encoding assay; P2 D;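 further: fraction of recording tags encoded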
[3] = biological target: M44-modified S NTAA target peptides; assay: encoding assay; P2 D
[4] = biological target: M44-modified G NTAA target peptides (M44-G-P2-peptide); assay: encoding assay; P2 V;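 further: fraction of recording tags encoded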
[5] = biological target: M44-modified E NTAA target peptides; assay: encoding assay; P2 V;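 further: fraction of recording tags encoded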
[6] = biological target: M44-modified D NTAA target peptides; assay: encoding assay; P2 G;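 further: fraction of recording tags encoded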
[7] = biological target: M44-modified A NTAA target peptides (M44-A-P2-peptide); assay: encoding assay; P2 G;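 further: fraction of recording tags encoded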
[8] = biological target: M44-modified P NTAA target peptides; assay: encoding assay; P2 G;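 further: fraction of recording tags encoded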
[9] = biological target: M44-modified H NTAA target peptides; assay: encoding assay; P2 G;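 further: fraction of recording tags encoded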
[10] = biological target: M44-modified N NTAA target peptides; assay: encoding assay; P2 G
[11] = biological target: M44-modified S NTAA target peptides; assay: encoding assay; P2 G
[12] = biological target: M44-modified V NTAA target peptides; assay: encoding assay; P2 V;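 further: fraction of recording tags encoded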
[13] = biological target: M17-modified P NTAA target peptides; assay: encoding assay; P2 D;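 further: fraction of recording tags encoded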
[14] = biological target: M17-modified I NTAA target peptides; assay: encoding assay; P2 D;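 further: fraction of recording tags encoded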
[15] = biological target: M17-modified Q NTAA target peptides; assay: encoding assay; P2 D;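 further: fraction of recording tags encoded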
[16] = biological target: M17-modified P NTAA target peptides; assay: encoding assay; P2 V;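 further: fraction of recording tags encoded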
[17] = biological target: M17-modified T NTAA target peptides; assay: encoding assay; P2 V;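 further: fraction of recording tags encoded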
[18] = biological target: M17-modified G NTAA target peptides; assay: encoding assay; P2 V;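 further: fraction of recording tags encoded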
[19] = biological target: M17-modified L NTAA target peptides; assay: encoding assay; P2 V;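 further: fraction of recording tags encoded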
[20] = biological target: M17-modified S NTAA target peptides; assay: encoding assay; P2 V;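 further: fraction of recording tags encoded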
[21] = biological target: M17-modified M NTAA target peptides; assay: encoding assay; P2 V;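 further: fraction of recording tags encoded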
[22] = biological target: M17-modified I NTAA target peptides; assay: encoding assay; P2 V;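 further: fraction of recording tags encoded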
[23] = biological target: M17-modified V NTAA target peptides; assay: encoding assay; P2 V;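 further: fraction of recording tags encoded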
[24] = biological target: M17-modified A NTAA target peptides; assay: encoding assay; P2 V;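 further: fraction of recording tags encoded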
[25] = biological target: M17-modified N NTAA target peptides; assay: encoding assay; P2 V;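 further: fraction of recording tags encoded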
[26] = biological target: M17-modified H NTAA target peptides; assay: encoding assay; P2 V;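 further: fraction of recording tags encoded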
[27] = biological target: M17-modified W NTAA target peptides; assay: encoding assay; P2 V;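 further: fraction of recording tags encoded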
[28] = biological target: M17-modified E NTAA target peptides; assay: encoding assay; P2 V;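 further: fraction of recording tags encoded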
[29] = biological target: M17-modified Y NTAA target peptides (M17-Y-P2-peptide); assay: encoding assay; P2 V;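 further: fraction of recording tags encoded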
[30] = biological target: M17-modified F NTAA target peptides; assay: encoding assay; P2 V;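 further: fraction of recording tags encoded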
[31] = biological target: M17-modified D NTAA target peptides; assay: encoding assay; P2 V;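 further: fraction of recording tags encoded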
[32] = biological target: M17-modified Q NTAA target peptides; assay: encoding assay; P2 V;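 further: fraction of recording tags encoded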
[33] = biological target: M17-modified P NTAA target peptides; assay: encoding assay; P2 L;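 further: fraction of recording tags encoded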
[34] = biological target: M17-modified T NTAA target peptides; assay: encoding assay; P2 L;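 further: fraction of recording tags encoded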
[35] = biological target: M17-modified G NTAA target peptides; assay: encoding assay; P2 L;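 further: fraction of recording tags encoded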
[36] = biological target: M17-modified W NTAA target peptides; assay: encoding assay; P2 L;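 further: fraction of recording tags encoded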
[37] = biological target: M17-modified F NTAA target peptides; assay: encoding assay; P2 L;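 further: fraction of recording tags encoded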
[38] = biological target: M17-modified Q NTAA target peptides; assay: encoding assay; P2 L;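 further: fraction of recording tags encoded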
[39] = biological target: M17-modified P NTAA target peptides; assay: encoding assay; P2 G;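 further: fraction of recording tags encoded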
[40] = biological target: M17-modified T NTAA target peptides; assay: encoding assay; P2 G;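 further: fraction of recording tags encoded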
[41] = biological target: M17-modified G NTAA target peptides; assay: encoding assay; P2 G;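 further: fraction of recording tags encoded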
[42] = biological target: M17-modified L NTAA target peptides; assay: encoding assay; P2 G;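 further: fraction of recording tags encoded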
[43] = biological target: M17-modified S NTAA target peptides; assay: encoding assay; P2 G;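 further: fraction of recording tags encoded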
[44] = biological target: M17-modified M NTAA target peptides; assay: encoding assay; P2 G;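 further: fraction of recording tags encoded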
[45] = biological target: M17-modified I NTAA target peptides; assay: encoding assay; P2 G;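 further: fraction of recording tags encoded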
[46] = biological target: M17-modified V NTAA target peptides; assay: encoding assay; P2 G;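 further: fraction of recording tags encoded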
[47] = biological target: M17-modified A NTAA target peptides; assay: encoding assay; P2 G;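 further: fraction of recording tags encoded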
[48] = biological target: M17-modified N NTAA target peptides; assay: encoding assay; P2 G;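 further: fraction of recording tags encoded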
[49] = biological target: M17-modified H NTAA target peptides; assay: encoding assay; P2 G;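 further: fraction of recording tags encoded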
[50] = biological target: M17-modified E NTAA target peptides; assay: encoding assay; P2 G;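 further: fraction of recording tags encoded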
[51] = biological target: M17-modified Y NTAA target peptides (M17-Y-P2-peptide); assay: encoding assay; P2 G;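 further: fraction of recording tags encoded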
[52] = biological target: M17-modified F NTAA target peptides; assay: encoding assay; P2 G;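 further: fraction of recording tags encoded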
[53] = biological target: M17-modified D NTAA target peptides; assay: encoding assay; P2 G;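 further: fraction of recording tags encoded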
[54] = biological target: M17-modified Q NTAA target peptides; assay: encoding assay; P2 G;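 further: fraction of recording tags encoded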

encoding yield [1]: 0.01
encoding yield [2]: 0.01
encoding yield [3]: 0.01
encoding yield [4]: 0.01
encoding yield [5]: 0.01
encoding yield [6]: 0.01
encoding yield [7]: 0.01
encoding yield [8]: 0.02
encoding yield [9]: 0.02
encoding yield [10]: 0.01
encoding yield [11]: 0.01
B1: engineered M44-L binder (SEQ ID NO: 31) (designed binder, not shown: small tags and cut ends; large carriers)
chain: QDSTQNLIPAPPLISVPLQPGFWTERFQGRWFLVGFAGNAVQKERQSRLTMQSLILELQEDNSYNITAINVRGQGCRYIISTLVPSSRPGQFTLGNIHSYPQIQSLDVQVADTDYDQFAMVFLQGTSENKQYFEVALAGRTKGLSDELKERFVSFAKSLGLKDNNIVFSVPTDQCIDN

encoding yield [1]: 0.02
encoding yield [2]: 0.01
encoding yield [3]: 0.01
encoding yield [12]: 0.01
encoding yield [4]: 0.01
encoding yield [5]: 0.03
encoding yield [6]: 0.01
encoding yield [7]: 0.07
encoding yield [8]: 0.02
encoding yield [9]: 0.02
encoding yield [10]: 0.01
encoding yield [11]: 0.01
B2: engineered M44-A binder (SEQ ID NO: 42) (designed binder, not shown: small tags and cut ends; large carriers)
chain: QVSVQPNFQQDKFLGRWFVAGLASNSSWDREKVAALSGAKMVVAPATDGGLNVTRTMLRKNQCETYTGLLQPAGSLGSYSWRSPHPGSTGSESVVETDYDQYALVYGQGSKGPGEDLRAAALWSRTQTPRAELKEKFTAFSKAQGFTEDTIVFLPQTDKCMTEQ

encoding yield [13]: 0.01
encoding yield [14]: 0.01
encoding yield [15]: 0.01
encoding yield [16]: 0.02
encoding yield [17]: 0.03
encoding yield [18]: 0.01
encoding yield [19]: 0.02
encoding yield [20]: 0.02
encoding yield [21]: 0.02
encoding yield [22]: 0.05
encoding yield [23]: 0.01
encoding yield [24]: 0.02
encoding yield [25]: 0.02
encoding yield [26]: 0.04
encoding yield [27]: 0.04
encoding yield [28]: 0.01
encoding yield [29]: 0.22
encoding yield [30]: 0.13
encoding yield [31]: 0.03
encoding yield [32]: 0.02
encoding yield [33]: 0.02
encoding yield [34]: 0.01
encoding yield [35]: 0.02
encoding yield [36]: 0.01
encoding yield [37]: 0.04
encoding yield [38]: 0.02
encoding yield [39]: 0.01
encoding yield [40]: 0.03
encoding yield [41]: 0.01
encoding yield [42]: 0.02
encoding yield [43]: 0.01
encoding yield [44]: 0.01
encoding yield [45]: 0.03
encoding yield [46]: 0.02
encoding yield [47]: 0.01
encoding yield [48]: 0.01
encoding yield [49]: 0.03
encoding yield [50]: 0.02
encoding yield [51]: 0.11
encoding yield [52]: 0.06
encoding yield [53]: 0.01
encoding yield [54]: 0.02
B3: engineered M17-Y binder (SEQ ID NO: 61) (designed binder, not shown: small tags and cut ends; large carriers)
chain: TVPDRSEIAGKWYVVALASNTEFYLREKDWVKSAMARISFLGEDELKVSSAVPSPNGCYKVERTWKKTSDDGEVYNSRAAKLKVEVLDTDYKSYAVIYATRVKDGRTDHQMILYSRSPEVSPAATAIFRKLAGERNYTDEMVAMLPRQEECTVDEV

encoding yield [13]: 0.02
encoding yield [14]: 0.02
encoding yield [15]: 0.02
encoding yield [16]: 0.03
encoding yield [17]: 0.04
encoding yield [18]: 0.02
encoding yield [19]: 0.03
encoding yield [20]: 0.03
encoding yield [21]: 0.03
encoding yield [22]: 0.07
encoding yield [23]: 0.01
encoding yield [24]: 0.03
encoding yield [25]: 0.03
encoding yield [26]: 0.04
encoding yield [27]: 0.08
encoding yield [28]: 0.02
encoding yield [29]: 0.32
encoding yield [30]: 0.17
encoding yield [31]: 0.03
encoding yield [32]: 0.02
encoding yield [33]: 0.03
encoding yield [34]: 0.02
encoding yield [35]: 0.02
encoding yield [36]: 0.04
encoding yield [37]: 0.08
encoding yield [38]: 0.03
encoding yield [39]: 0.02
encoding yield [40]: 0.05
encoding yield [41]: 0.01
encoding yield [42]: 0.03
encoding yield [43]: 0.01
encoding yield [44]: 0.02
encoding yield [45]: 0.05
encoding yield [46]: 0.03
encoding yield [47]: 0.02
encoding yield [48]: 0.01
encoding yield [49]: 0.03
encoding yield [50]: 0.02
encoding yield [51]: 0.18
encoding yield [52]: 0.11
encoding yield [53]: 0.02
encoding yield [54]: 0.02
B4: upgraded binder after additional maturation round (SEQ ID NO: 62) (designed binder, not shown: small tags and cut ends; large carriers)
chain: TVPDRSEIAGKWYVVALASNTEFYLRGKDRVKSAMVRISFQGEDELKVSSAVPSPNGCYKVERTWKKTSDDGEVYNSRAAKLKVEVLDTDYKSYAVIYATRVKDRRTDHQMILYSRSPDVSPAATAIFRKLAGERNYTDEMVAMLPRQEECTVDEV

encoding yield [12]: 0.01
B5: engineered M44-L binder (SEQ ID NO: 21) (designed binder, not shown: small tags and cut ends; large carriers)
chain: QVSVQPNFQQDKFLGRWFYAGHASNSSWYREKVAALSMAKLVVAPATDGGLNATETFLRKNQCETITSLLQPAGSLGSYSSRSPHGGSTWSTSVVETDYDQYALLYLQGSKGPGEDFRGAILASRTQTPRAELKEKFTAFSKAQGFTEDTIVFLPQTDKCMTEQ

— US20230220589A1
